Target: baculovirus-expressed human Dnmt1 (human, UniProt P26358 1-1616)
Assay: pull-down

Chain of baculovirus-expressed human Dnmt1 (P26358 whole entry): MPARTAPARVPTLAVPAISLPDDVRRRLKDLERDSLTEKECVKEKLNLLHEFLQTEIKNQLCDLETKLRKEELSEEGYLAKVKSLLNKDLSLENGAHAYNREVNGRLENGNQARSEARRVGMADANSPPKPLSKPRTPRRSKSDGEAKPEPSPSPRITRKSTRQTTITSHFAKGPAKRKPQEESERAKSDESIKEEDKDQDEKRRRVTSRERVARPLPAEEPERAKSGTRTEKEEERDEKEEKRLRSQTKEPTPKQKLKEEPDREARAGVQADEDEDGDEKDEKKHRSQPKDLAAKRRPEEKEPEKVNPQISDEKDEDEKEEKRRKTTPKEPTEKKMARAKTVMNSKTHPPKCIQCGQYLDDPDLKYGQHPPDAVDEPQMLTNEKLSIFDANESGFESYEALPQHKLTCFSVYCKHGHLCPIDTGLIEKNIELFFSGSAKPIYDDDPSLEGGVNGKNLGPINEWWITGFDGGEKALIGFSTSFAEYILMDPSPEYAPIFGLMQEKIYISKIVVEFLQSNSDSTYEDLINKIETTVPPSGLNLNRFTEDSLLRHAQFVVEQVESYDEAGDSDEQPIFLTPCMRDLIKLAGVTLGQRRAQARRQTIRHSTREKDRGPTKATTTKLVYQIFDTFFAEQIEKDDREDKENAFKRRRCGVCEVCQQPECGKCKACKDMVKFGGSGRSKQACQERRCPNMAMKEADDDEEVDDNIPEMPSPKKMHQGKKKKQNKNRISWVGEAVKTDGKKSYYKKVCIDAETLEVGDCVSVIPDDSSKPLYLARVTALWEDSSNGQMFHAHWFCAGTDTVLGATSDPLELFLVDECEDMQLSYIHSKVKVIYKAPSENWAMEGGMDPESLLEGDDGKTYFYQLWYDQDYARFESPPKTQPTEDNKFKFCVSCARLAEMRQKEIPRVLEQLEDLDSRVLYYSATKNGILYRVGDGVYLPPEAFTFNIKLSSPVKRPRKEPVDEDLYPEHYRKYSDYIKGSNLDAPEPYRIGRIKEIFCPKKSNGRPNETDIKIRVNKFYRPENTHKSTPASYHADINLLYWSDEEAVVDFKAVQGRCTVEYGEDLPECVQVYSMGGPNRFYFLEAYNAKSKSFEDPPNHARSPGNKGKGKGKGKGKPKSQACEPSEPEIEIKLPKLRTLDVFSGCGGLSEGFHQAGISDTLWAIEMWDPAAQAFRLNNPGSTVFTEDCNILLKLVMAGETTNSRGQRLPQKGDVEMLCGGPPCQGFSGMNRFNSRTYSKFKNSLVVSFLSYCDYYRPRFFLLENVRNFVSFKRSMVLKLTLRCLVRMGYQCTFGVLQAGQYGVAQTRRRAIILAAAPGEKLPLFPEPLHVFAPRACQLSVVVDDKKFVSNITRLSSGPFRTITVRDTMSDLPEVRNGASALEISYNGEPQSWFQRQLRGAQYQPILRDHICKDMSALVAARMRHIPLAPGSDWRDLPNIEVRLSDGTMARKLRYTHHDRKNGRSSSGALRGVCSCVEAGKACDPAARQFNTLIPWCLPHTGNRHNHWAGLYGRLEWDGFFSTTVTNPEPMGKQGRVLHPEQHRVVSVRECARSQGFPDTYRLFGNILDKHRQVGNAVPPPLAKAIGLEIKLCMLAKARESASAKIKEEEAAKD

B1: GST-E7 (HPV-16 E7) (natural protein, UniProt P03129 1-98, looked up)
chain: MHGDTPTLHEYMLDLQPETTDLYCYEQLNDSSEEEDEIDGPAGQAEPDRAHYNIVTFCCKCDSTLRLCVQSTHVDIRTLEDLLMGTLGIVCPICSQKP
B1: binds.

Reference: PMC3350866 (Oncogene, 2006)
